Laboratory results as given in patent US6399344B1, “Isolated proteins having retinol dehydrogenase activity, and which associate with retinol binding receptors” (Ludwig Institute for Cancer Research, priority 1994, dated 2002).

T1: p63 (Bos taurus, UniProt Q28175)
T1 construct: RPE-membrane proteins were then solubilized in phosphate-buffered saline; from tissue; host or cells: bovine retinal pigment epithelium (RPE) membrane fraction, CHAPS-solubilized, gel-filtered, 125I-labelled
T1 sequence (Q28175 2-533 limits assumed): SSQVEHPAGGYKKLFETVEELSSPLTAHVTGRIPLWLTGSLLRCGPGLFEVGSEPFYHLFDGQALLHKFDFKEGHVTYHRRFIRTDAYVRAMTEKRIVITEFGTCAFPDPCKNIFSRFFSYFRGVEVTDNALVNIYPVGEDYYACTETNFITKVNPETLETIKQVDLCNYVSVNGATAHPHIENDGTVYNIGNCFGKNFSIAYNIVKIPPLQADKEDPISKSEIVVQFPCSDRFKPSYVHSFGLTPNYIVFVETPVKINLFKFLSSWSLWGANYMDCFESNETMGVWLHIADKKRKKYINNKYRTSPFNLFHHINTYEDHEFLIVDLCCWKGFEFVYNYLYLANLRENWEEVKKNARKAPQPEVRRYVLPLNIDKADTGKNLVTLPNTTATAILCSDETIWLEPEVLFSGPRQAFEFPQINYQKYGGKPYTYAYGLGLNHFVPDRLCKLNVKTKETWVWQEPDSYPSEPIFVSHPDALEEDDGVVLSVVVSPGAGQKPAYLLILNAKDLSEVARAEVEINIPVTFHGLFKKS


Legend:
[1] = Retinol dehydrogenase activity in membranes of baculovirus-infected Sf9 cells, reversed phase HPLC; assay type: biochemical, murine
Description: In order to generate a protein from a eukaryotic system, a 1.2 kilobase EcoRI fragment of the SEQ ID NO: 35 plasmid described supra was subcloned into a baculovirus expression vector, using known methods. Then, the vector was used to transfect Spodoptera frugiperda (“Sf9”) cells, again using known methods. Recombinant baculoviruses were then amplified by several rounds of amplification, and were then used in fresh Sf9 cells. A parallel set of experiments were also carried out, but using recombinant virus containing an unrelated gene, whose expression product had no retinol dehydrogenase activity.
Expressed protein was then assessed for enzyme activity. In brief, membranes equivalent to 25 ug of total membrane protein from infected cells were incubated in phosphate buffered saline (PBS), containing 100 uM of 9-cis retinol, or all-trans retinol. Final volumes of incubated materials were 200 ul. Either cofactor NAD+ or cofactor NADP was also added, to a final concentration of 200 uM. The mixture was incubated for 20 minutes at 37° C., after which alkaline ethanol was added. The mixture was then extracted with 2.0 ml of n-hexane. The organic phase was then removed and dried under argon. Dried phases were dissolved in ethanol, and aliquots were analyzed by reversed phase HPLC, using a C18 column, and a mobile phase of acetonitrile/water (85:15 v/v). Elution was at 1.0 ml/min, with effluent being monitored at 350 nm.

p63 = molecular target: T1, p63; assay: Immunoprecipitation of radiolabelled RPE-membrane proteins with mAb A52 / rabbit antisera to p63, SDS-PAGE; assay type: binding; conditions: solubilized bovine RPE membranes, immunoprecipitation with mAb A52 or rabbit antisera to p63
Description: Bovine RPE-cells were isolated and membrane fractions were prepared as described in Bavik et al, J. Biol. Chem. 266:[…] (1991) incorporated by reference. RPE-membrane proteins were then solubilized in phosphate-buffered saline (PBS) (20 mM sodium phosphate, PH 7.2, containing 150 mM NaCl), containing 1% 3-[(3-cholamido-propyl) -dimethylammonio] -1-propane sulfonic acid (CHAPS) at 1 mg of total membrane protein/ml of buffer. Remaining material was removed by ultracentrifugation at 100,000×g for 1 hour. Next, 500 ul aliquots of the solubilized membranes were subjected to gel filtration on a Sepharose 6 column equilibrated in PBS containing 1% CHAPS. The column was operated at a flow rate of 0.2 ml/min and 500 ul fractions collected. Proteins eluted in fractions corresponding to globular proteins of Mr 150,000 to 400,000 were then radiolabelled with Na^125I using the well-known Chloramin T procedure. […]
Aliquots of the radiolabelled proteins were then diluted in PBS containing 1% CHAPS and 1% bovine serum albumin and subsequently subjected to immunoprecipitation using the mAb A52 to p63 (5 ug per incubation) or using two polyclonal rabbit antisera to p63 (3 ul of serum per incubation) See Bavik et al., J. Biol. Chem. 267:23035-23042 (1992). Non-specific immunoprecipitation was monitored in parallel incubations using an unrelated mAb and preimmune rabbit serum. […]

[2] = Retinol dehydrogenase activity of p32 in microsomal fractions of transfected COS-cells, HPLC; assay type: biochemical, bovine
Description: Specifically, the EcoRI—insert of pλ321 was cloned into the EcoR1-digested eucaryotic expression vector pSG5. See Green et al., Nucl. Acid Res. 16:39 (1988). COS-cells were maintained in Dulbecco's minimal essential medium supplemented with 10% fetal bovine serum, 2mM glutamine and antibiotics. The cells were seeded into 60 mm petri dishes (4×10^5 cells per dish) and transfected with 5 ug of plasmid per dish using DEAE dextran. Control cells were transfected with equal amounts of the parental vector alone. After treatment with 10% DMSO for 2 minutes, the cells were incubated for 72-96 hours, and then harvested by scraping the dishes with a rubber policeman, and the cells thereafter collected by low speed centrifugation. The collected cell pellets were next resuspended in hypotonic buffer (10 mM Tris-HCl, pH 7.5 containing 1mM phenyl-methylsufonyl fluoride), put on ice for 20 minutes, and then homogenized using a Dounce homogenator. Unbroken cells and debris were removed by centrifugation (3000×g)for 15 minutes. Microsomes were subsequently collected by ultra-centrifugation at 100,000×g for 1 hour; membrane pellets were stored at −80° C. until further analyzed.
Next, some of the enzymatic properties of p32 expressed in COS-cells were determined in a manner similar to that as described in the study of 11-cis-retinol dehydrogenase activity in microsomal fractions of RPE cells. See Saari et al., Anal. Biochem 213:[…] (1993).
In particular, enzymatic activity of p32 was assayed by incubating the microsomal fractions from the aforementioned transfected cells, and from control cells lacking p32, with varying combinations of the different stereo isomeric substrates, i.e., 11-cis-retinol or all-trans-retinol, in the presence of either cofactor NAD+ or NADP.
To assay for p32 activity in transfected cells, the final concentration of 11-cis-retinol and all-trans-retinol (obtained from Sigma Chemical Co.) in the incubations was reduced to 100 uM. Twenty ug of total membrane protein from COS-cells expressing p32 or from control cells were used in each incubation, and thereafter a 30 minute incubation at 37° C. in the presence or absence of NAD+ or NADP followed. Reaction mixtures were then extracted with n-hexane, and organic phases removed and dried under argon. The dried organic phases were then separately dissolved in ethanol and aliquots were analyzed on a normal phase silica HPLC column developed with n-hexane containing 4% dioxane at 1 ml per minute. See Saari et al. J. Biol. Chem. 257:13329-13333 (1982). Effluent was monitored at 330 nm. Under these conditions, 11-cis-retinaldehyde and 11-cis retinol eluted at 7 minutes and 22.5 minutes, respectively, and all-trans-retinaldehyde and all-trans retinol eluted at 8 minutes and 23 minutes, respectively.

[3] = experiments not elaborated upon

| Molecule | oxidation of 9-cis retinol, efficiency relative to mock infected cells ([1]; 100 uM 9-cis retinol, 20 minutes at 37° C.) | 9-cis retinaldehyde formation ([1]; 100 uM 9-cis retinol, cofactor NADP 200 uM) | 11-cis RDH activity [1, 3] | 13-cis RDH activity [1, 3] | coprecipitation with p63 (binding to p63) (p63) | 11-cis-retinol dehydrogenase activity (formation of 11-cis-retinaldehyde) ([2]; 100 uM 11-cis-retinol, cofactor NAD+, 30 minute at 37° C.) | formation of all-trans retinaldehyde from all-trans retinol ([2]; 100 uM all-trans-retinol, 30 minute at 37° C.) | 11-cis-retinol dehydrogenase activity ([2]; cofactor NADP) | 9-cis retinol dehydrogenase activity ([2]; further experiments, no details) |
| --- | --- | --- | --- | --- | --- | --- | --- | --- | --- |
| protein encoded by SEQ ID NO: 35: murine liver membrane associated protein of about 34 kilodaltons with 9-cis, 11-cis and 13-cis retinol dehydrogenase activity (protein) MWLPLLLGALLWAVLWLLRDRQSLPASDAFIFITGCDSGFGRLLALQLDQKGFQVLAGCLTPSGAEDLQQMASSRLHTTLLDITDPQNVQQVAKWVKTRVGETGLFGLVNNAGVAGIIGPTPWLTQDDFQRVLSVNTLGPIGVTLALLPLLQQARGRVVNITSVLGRIAANGGGYCVSKFGLEAFSDSLRRDMAPFGVQVSIVEPGFFRTPVTNLESLESTLKACWARLPPAIQAHYGEAFLDTYLRVQRRIMNLICDPELTKVTSCLEHALTARHPRTRYSPGWDAKLLWLPASYLPARVVDAVLTWILPRPAQSVS | 8-10 times | Background levels | observed | 13-cis RDH activity | – | – | – | – | – |
| p32: 32 kDa membrane associated bovine RPE protein that complexes with p63; stereo specific 11-cis-retinol dehydrogenase (SEQ ID NO: 10) (protein) MWLPLLLGVLLWAALWLLRDRQCLPASDAFIFITGCDSGFGRLLALRLDQRGFRVLASCLTPSGAEDLQRVASSRLHTTLLDVTDPQSIRQAVKWVETHVGEAGLFGLVNNAGVAGIIGPTPWQTREDFQRVLNVNTLGPIGVTLALLPLLLQARGRVINITSVLGRLAANGGGYCVSKFGLEAFSDSLRRDVAPFGVRVSIVEPGFFRTPVTNLETLEDTLQACWARLPPATQALYGEAFLTKYLRVQQRIMNMICDPDLAKVSRCLEHALTARHPRTRYSPGWDAKLLWLPASYLPARLVDAVLAWVLPKPAQTVY | – | – | – | – | coprecipitated | active | no significant formation of all-trans retinaldehyde | not enzymatically-active | has 9-cis retinol dehydrogenase activity |
